What was measured:
[1] = target: T1, human complement factor H (human, UniProt P08603 19-1231); experiment: ELISA; competition inhibition assay: HcpA (2 µg/ml) coated; constant CFH (3 µg/ml in the methods, 2 µg/ml in the results) with PLG 0.001-100 µg/ml, or constant PLG (10 µg/ml) with CFH 0.001-100 µg/ml; conditions: both partners purified
T1 construct: complement factor H, human, 20 short consensus repeats (SCRs); purified protein or as present in normal human serum; purified human factor H of Calbiochem is the only one named; also called CFH; source: bought: Calbiochem (purified human factor H); also in normal human serum

recombinant CFHR-1 = target: T2, recombinant CFHR-1 (human, UniProt Q03591 19-330); experiment: far-Western, overlay or dot blot; ligand affinity blot: purified recombinant HcpA separated by SDS-PAGE, on nitrocellulose strips, incubated with recombinant CFHL-1, CFH deletion constructs or recombinant CFHR-1; anti-CFH immune serum, mAb JHD7 or JHD8; conditions: both partners purified
T2 construct: complement factor H-related protein 1, human, recombinant; also called CFH-related protein 1
T2 sequence: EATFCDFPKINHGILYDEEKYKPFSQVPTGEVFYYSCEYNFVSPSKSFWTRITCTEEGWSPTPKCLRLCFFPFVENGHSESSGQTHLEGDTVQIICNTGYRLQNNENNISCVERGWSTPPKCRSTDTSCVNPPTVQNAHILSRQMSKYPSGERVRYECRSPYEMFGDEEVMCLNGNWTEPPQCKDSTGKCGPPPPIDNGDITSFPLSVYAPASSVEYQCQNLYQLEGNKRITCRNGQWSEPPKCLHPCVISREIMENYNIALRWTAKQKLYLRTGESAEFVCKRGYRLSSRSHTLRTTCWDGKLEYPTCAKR

B1: recombinant full-length HcpA (residues 18 to 175) of B. recurrentis A1 (domain or fragment)
chain: LLSKNANLQPKTLETLESNIDDGQKQALAFFQESLQDNKHLDALKQAQSALLKDIKDKPQKTLNFKYNKTKLEQLFRKLGNDKTKQFLKNLHVTIKFINNGSFQSFSSANFNDLDTLEKKQERAINSIKEELYVNYYLYTNELVDLDYFFYRAMNYLS
notes: HcpA, surface lipoprotein of B. recurrentis A1, residues 18-175, lacking the hydrophobic leader peptide; cloned into pQE-30Xa with primers BrBam and BrSal; also called intact HcpA; source: E. coli JM109, purified as recommended by the manufacturer (Qiagen); not shown: His6, N-terminal, kept
Question: Does B1 bind [1]?
Answer: binds

Question: Does B1 bind (recombinant CFHR-1)?
Answer: binds
